± gives the uncertainty stated by the source.

We go through 91 substances from the Human Domainome abundance scans (Beltran et al. 2025).

This data set can be described thus: abundance fitness (aPCA) (normalised: wild type 0, dead -1); higher = more abundant; growth selection in yeast, the domain comes from the species named. The settings on record: Homo sapiens.
Regarding “DnaJ homolog subfamily B member 1 R26T, P25685”, the abundance fitness was -0.128 ± 0.12.

Substance “DnaJ homolog subfamily B member 1 R26V, P25685” gave an abundance fitness of 0.03 ± 0.15.

The substance “DnaJ homolog subfamily B member 1 R26W, P25685” gave an abundance fitness of -0.023 ± 0.081.

For “DnaJ homolog subfamily B member 1 R26Y, P25685”, the abundance fitness is -0.344 ± 0.19.

“DnaJ homolog subfamily B member 1 R30A, P25685” displayed an abundance fitness of 0.033 ± 0.072.

“DnaJ homolog subfamily B member 1 R30C, P25685” displayed an abundance fitness of 0.042 ± 0.16.

In turn, “DnaJ homolog subfamily B member 1 R30E, P25685” came in with an abundance fitness of 0.047 ± 0.24.

“DnaJ homolog subfamily B member 1 R30F, P25685” showed an abundance fitness of -0.024 ± 0.089.

For the substance “DnaJ homolog subfamily B member 1 R30G, P25685”, the abundance fitness was -0.056 ± 0.11.

Substance “DnaJ homolog subfamily B member 1 R30H, P25685” registered an abundance fitness of -0.125 ± 0.088.

Substance “DnaJ homolog subfamily B member 1 R30I, P25685” gave an abundance fitness of -0.036 ± 0.095.

In the case of “DnaJ homolog subfamily B member 1 R30K, P25685”, the abundance fitness was -0.086 ± 0.098.

As to “DnaJ homolog subfamily B member 1 R30L, P25685”, the abundance fitness is 0.081 ± 0.067.

“DnaJ homolog subfamily B member 1 R30M, P25685” came in with an abundance fitness of 0.104 ± 0.089.

As for “DnaJ homolog subfamily B member 1 R30N, P25685”, the abundance fitness was 0.014 ± 0.1.

“DnaJ homolog subfamily B member 1 R30Q, P25685” showed an abundance fitness of 0.087 ± 0.11.

Substance “DnaJ homolog subfamily B member 1 R30S, P25685” returned an abundance fitness of -0.024 ± 0.073.

As for “DnaJ homolog subfamily B member 1 R30T, P25685”, the abundance fitness is -0.026 ± 0.1.

Consider “DnaJ homolog subfamily B member 1 R30Y, P25685”, for which the abundance fitness was 0.131 ± 0.087.

Regarding “DnaJ homolog subfamily B member 1 R59A, P25685”, the abundance fitness was -0.051 ± 0.086.

The substance “DnaJ homolog subfamily B member 1 R59C, P25685” had an abundance fitness of -0.128 ± 0.14.

“DnaJ homolog subfamily B member 1 R59D, P25685” gave an abundance fitness of 0.095 ± 0.21.

In the case of “DnaJ homolog subfamily B member 1 R59E, P25685”, the abundance fitness is 0.026 ± 0.099.

Substance “DnaJ homolog subfamily B member 1 R59F, P25685” registered an abundance fitness of -0.045 ± 0.15.

The substance “DnaJ homolog subfamily B member 1 R59G, P25685” came in with an abundance fitness of -0.065 ± 0.084.

For the substance “DnaJ homolog subfamily B member 1 R59H, P25685”, the abundance fitness was -0.167 ± 0.11.

For “DnaJ homolog subfamily B member 1 R59I, P25685”, the abundance fitness was -0.232 ± 0.15.

In turn, “DnaJ homolog subfamily B member 1 R59K, P25685” returned an abundance fitness of -0.104 ± 0.11.

Substance “DnaJ homolog subfamily B member 1 R59L, P25685” registered an abundance fitness of -0.186 ± 0.099.

“DnaJ homolog subfamily B member 1 R59M, P25685”: the abundance fitness was -0.256 ± 0.19.

“DnaJ homolog subfamily B member 1 R59N, P25685” registered an abundance fitness of -0.068 ± 0.14.

As for “DnaJ homolog subfamily B member 1 R59P, P25685”, the abundance fitness is -0.4 ± 0.15.

“DnaJ homolog subfamily B member 1 R59Q, P25685” displayed an abundance fitness of -0.194 ± 0.13.

For “DnaJ homolog subfamily B member 1 R59S, P25685”, the abundance fitness was -0.036 ± 0.081.

In the case of “DnaJ homolog subfamily B member 1 R59T, P25685”, the abundance fitness is 0.07 ± 0.1.

“DnaJ homolog subfamily B member 1 R59V, P25685”: the abundance fitness was -0.059 ± 0.071.

In the case of “DnaJ homolog subfamily B member 1 R59W, P25685”, the abundance fitness was -0.186 ± 0.14.

Substance “DnaJ homolog subfamily B member 1 R61A, P25685” yielded an abundance fitness of -0.596 ± 0.16.

“DnaJ homolog subfamily B member 1 R61C, P25685” came in with an abundance fitness of -0.325 ± 0.15.

In turn, “DnaJ homolog subfamily B member 1 R61D, P25685” displayed an abundance fitness of -0.668 ± 0.18.

Turning to “DnaJ homolog subfamily B member 1 R61E, P25685”, the abundance fitness was -0.362 ± 0.11.

“DnaJ homolog subfamily B member 1 R61F, P25685” showed an abundance fitness of -0.756 ± 0.18.

In the case of “DnaJ homolog subfamily B member 1 R61G, P25685”, the abundance fitness is -0.406 ± 0.1.

Substance “DnaJ homolog subfamily B member 1 R61I, P25685” returned an abundance fitness of -0.584 ± 0.13.

Turning to “DnaJ homolog subfamily B member 1 R61K, P25685”, the abundance fitness was -0.247 ± 0.16.

As to “DnaJ homolog subfamily B member 1 R61L, P25685”, the abundance fitness was -0.527 ± 0.076.

In the case of “DnaJ homolog subfamily B member 1 R61M, P25685”, the abundance fitness was -0.495 ± 0.14.

The substance “DnaJ homolog subfamily B member 1 R61N, P25685” showed an abundance fitness of -0.425 ± 0.1.

In turn, “DnaJ homolog subfamily B member 1 R61Q, P25685” returned an abundance fitness of -0.336 ± 0.093.

Regarding “DnaJ homolog subfamily B member 1 R61S, P25685”, the abundance fitness was -0.528 ± 0.068.

“DnaJ homolog subfamily B member 1 R61V, P25685” gave an abundance fitness of -0.429 ± 0.077.

On to “DnaJ homolog subfamily B member 1 R61W, P25685”, for which the abundance fitness was -0.897 ± 0.14.

In the case of “DnaJ homolog subfamily B member 1 R61Y, P25685”, the abundance fitness is -0.606 ± 0.13.

In turn, “DnaJ homolog subfamily B member 1 S16A, P25685” returned an abundance fitness of -0.167 ± 0.066.

Substance “DnaJ homolog subfamily B member 1 S16C, P25685” yielded an abundance fitness of -0.185 ± 0.077.

“DnaJ homolog subfamily B member 1 S16D, P25685”: the abundance fitness is -0.174 ± 0.09.

“DnaJ homolog subfamily B member 1 S16G, P25685” gave an abundance fitness of -0.074 ± 0.055.

Substance “DnaJ homolog subfamily B member 1 S16H, P25685” came in with an abundance fitness of -0.24 ± 0.13.

As for “DnaJ homolog subfamily B member 1 S16I, P25685”, the abundance fitness is -0.371 ± 0.11.

On to “DnaJ homolog subfamily B member 1 S16K, P25685”, for which the abundance fitness was -0.188 ± 0.12.

For the substance “DnaJ homolog subfamily B member 1 S16L, P25685”, the abundance fitness is -0.297 ± 0.053.

Substance “DnaJ homolog subfamily B member 1 S16M, P25685” gave an abundance fitness of -0.258 ± 0.073.

The substance “DnaJ homolog subfamily B member 1 S16N, P25685” had an abundance fitness of -0.059 ± 0.1.

“DnaJ homolog subfamily B member 1 S16P, P25685”: the abundance fitness was -0.123 ± 0.062.

As for “DnaJ homolog subfamily B member 1 S16R, P25685”, the abundance fitness is -0.158 ± 0.065.

In turn, “DnaJ homolog subfamily B member 1 S16T, P25685” showed an abundance fitness of -0.057 ± 0.092.

In turn, “DnaJ homolog subfamily B member 1 S16V, P25685” showed an abundance fitness of -0.301 ± 0.066.

Regarding “DnaJ homolog subfamily B member 1 S16Y, P25685”, the abundance fitness was -0.676 ± 0.073.

The substance “DnaJ homolog subfamily B member 1 S56A, P25685” had an abundance fitness of -0.142 ± 0.085.

The substance “DnaJ homolog subfamily B member 1 S56C, P25685” showed an abundance fitness of 0.022 ± 0.16.

Substance “DnaJ homolog subfamily B member 1 S56D, P25685” returned an abundance fitness of -0.551 ± 0.094.

Consider “DnaJ homolog subfamily B member 1 S56E, P25685”, for which the abundance fitness was -0.496 ± 0.079.

For “DnaJ homolog subfamily B member 1 S56F, P25685”, the abundance fitness is -0.526 ± 0.12.

Take “DnaJ homolog subfamily B member 1 S56G, P25685”: the abundance fitness stood at 0.002 ± 0.079.

With “DnaJ homolog subfamily B member 1 S56H, P25685”, the abundance fitness was -0.217 ± 0.16.

Consider “DnaJ homolog subfamily B member 1 S56I, P25685”, for which the abundance fitness is -0.174 ± 0.36.

As for “DnaJ homolog subfamily B member 1 S56K, P25685”, the abundance fitness is -0.051 ± 0.17.

Substance “DnaJ homolog subfamily B member 1 S56M, P25685” displayed an abundance fitness of -0.171 ± 0.095.

Regarding “DnaJ homolog subfamily B member 1 S56N, P25685”, the abundance fitness was -0.343 ± 0.15.

The substance “DnaJ homolog subfamily B member 1 S56P, P25685” came in with an abundance fitness of -0.99 ± 0.1.

Turning to “DnaJ homolog subfamily B member 1 S56Q, P25685”, the abundance fitness is -0.25 ± 0.14.

For “DnaJ homolog subfamily B member 1 S56R, P25685”, the abundance fitness was -0.226 ± 0.091.

Regarding “DnaJ homolog subfamily B member 1 S56T, P25685”, the abundance fitness was -0.111 ± 0.087.

On to “DnaJ homolog subfamily B member 1 S56V, P25685”, for which the abundance fitness was -0.071 ± 0.066.

Turning to “DnaJ homolog subfamily B member 1 S56W, P25685”, the abundance fitness was -0.853 ± 0.11.

In turn, “DnaJ homolog subfamily B member 1 S56Y, P25685” came in with an abundance fitness of -0.493 ± 0.11.

In turn, “DnaJ homolog subfamily B member 1 T8A, P25685” registered an abundance fitness of -0.143 ± 0.079.

For “DnaJ homolog subfamily B member 1 T8C, P25685”, the abundance fitness was -0.096 ± 0.094.

“DnaJ homolog subfamily B member 1 T8D, P25685” showed an abundance fitness of -0.101 ± 0.083.

In turn, “DnaJ homolog subfamily B member 1 T8E, P25685” gave an abundance fitness of -0.239 ± 0.11.

In turn, “DnaJ homolog subfamily B member 1 T8F, P25685” displayed an abundance fitness of -0.352 ± 0.17.
